In patent US20150344570A1 (published 2015):

T1: FcγRIIb extracellular domain with C-terminal His tag (human, UniProt P31994 43-217)
T1 construct: extracellular domain; also called 2b; FcgRIIb; not shown: His tag at the C terminus
T1 sequence (looked up): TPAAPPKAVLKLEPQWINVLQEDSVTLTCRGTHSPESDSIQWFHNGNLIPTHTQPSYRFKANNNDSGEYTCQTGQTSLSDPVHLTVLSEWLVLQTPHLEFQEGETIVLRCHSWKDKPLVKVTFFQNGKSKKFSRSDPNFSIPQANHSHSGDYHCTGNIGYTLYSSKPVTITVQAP

T2: FcγRIIb (human, UniProt P31994 43-217)
T2 construct: extracellular domain; Soluble extracellular domain with C-terminal His tag, used as analyte in Biacore; also called FcgRIIb; 2b; not shown: His tag attached to the C terminus
T2 sequence (looked up): T1 sequence (looked up)

B1: GpH7-A5/GpH7-B3 variant P238_16H/GpL16-k0 (antibody, human IgG1, kappa)
heavy 1: not shown
heavy 2: not shown
light: DIVMTQSPLSLPVTPGEPASISCQASESLVHSNRNTYLHWYLQKPGQSPQLLIYKVSNRFSGVPDRFSGSGSGTDFTLKISRVEAEDVGVYYCSQNTHVPPTFGQGTKVEIERTVAAPSVFIFPPSDEQLKSGTASVVCLLNNFYPREAKVQWKVDNALQSGNSQESVTEQDSKDSTYSLSSTLTLSKADYEKHKVYACEVTHQGLSSPVTKSFNRGEC
notes: IgG1, anti-glypican-3; also called He Ab
B2: GpH7-A5/GpH7-B3 variant P238_06M/GpL16-k0 (antibody, human IgG1, kappa)
heavy 1: not shown
heavy 2: not shown
light: B1 light
notes: as for B1
B3: GpH7-A5/GpH7-B3 variant P238_04F/GpL16-k0 (antibody, human IgG1, kappa)
heavy 1: not shown
heavy 2: not shown
light: B1 light
notes: as for B1
B4: GpH7-A5/GpH7-B3 variant S267_07I/GpL16-k0 (antibody, human IgG1, kappa)
heavy 1: not shown
heavy 2: not shown
light: B1 light
notes: as for B1
B5: GpH7-A5/GpH7-B3 variant S267_14T/GpL16-k0 (antibody, human IgG1, kappa)
heavy 1: not shown
heavy 2: not shown
light: B1 light
notes: as for B1
B6: GpH7-A5/GpH7-B3 variant S267_06M/GpL16-k0 (antibody, human IgG1, kappa)
heavy 1: not shown
heavy 2: not shown
light: B1 light
notes: as for B1
B7: GpH7-A5/GpH7-B3 variant L235_09D/GpL16-k0 (antibody, human IgG1, kappa)
heavy 1: not shown
heavy 2: not shown
light: B1 light
notes: as for B1
B8: GpH7-A5/GpH7-B3 variant S239_08L/GpL16-k0 (antibody, human IgG1, kappa)
heavy 1: not shown
heavy 2: not shown
light: B1 light
notes: as for B1
B9: GpH7-A5/GpH7-B3 variant P271_10E/GpL16-k0 (antibody, human IgG1, kappa)
heavy 1: not shown
heavy 2: not shown
light: B1 light
notes: as for B1
B10: GpH7-A5/GpH7-B3 variant P271_09D/GpL16-k0 (antibody, human IgG1, kappa)
heavy 1: not shown
heavy 2: not shown
light: B1 light
notes: as for B1
B11: GpH7-A5/GpH7-B3 variant S239_01G/GpL16-k0 (antibody, human IgG1, kappa)
heavy 1: not shown
heavy 2: not shown
light: B1 light
notes: as for B1
B12: GpH7-A5/GpH7-B3 variant S267_08L/GpL16-k0 (antibody, human IgG1, kappa)
heavy 1: not shown
heavy 2: not shown
light: B1 light
notes: as for B1
B13: GpH7-A5/GpH7-B3 variant S298_06M/GpL16-k0 (antibody, human IgG1, kappa)
heavy 1: not shown
heavy 2: not shown
light: B1 light
notes: as for B1
B14: GpH7-A5/GpH7-B3 variant S267_19Q/GpL16-k0 (antibody, human IgG1, kappa)
heavy 1: not shown
heavy 2: not shown
light: B1 light
notes: as for B1
B15: GpH7-A5/GpH7-B3 variant P238_20W/GpL16-k0 (antibody, human IgG1, kappa)
heavy 1: not shown
heavy 2: not shown
light: B1 light
notes: as for B1
B16: GpH7-A5/GpH7-B3 variant P238_08L/GpL16-k0 (antibody, human IgG1, kappa)
heavy 1: not shown
heavy 2: not shown
light: B1 light
notes: as for B1
B17: GpH7-A5/GpH7-B3 variant Y300_19Q/GpL16-k0 (antibody, human IgG1, kappa)
heavy 1: not shown
heavy 2: not shown
light: B1 light
notes: as for B1
B18: GpH7-A5/GpH7-B3 variant S239_06M/GpL16-k0 (antibody, human IgG1, kappa)
heavy 1: not shown
heavy 2: not shown
light: B1 light
notes: as for B1
B19: GpH7-A5/GpH7-B3 variant S267_10E/GpL16-k0 (antibody, human IgG1, kappa)
heavy 1: not shown
heavy 2: not shown
light: B1 light
notes: as for B1
B20: GpH7-A5/GpH7-B3 variant S267_03V/GpL16-k0 (antibody, human IgG1, kappa)
heavy 1: not shown
heavy 2: not shown
light: B1 light
notes: as for B1
B21: GpH7-A5/GpH7-B3 variant S239_05P/GpL16-k0 (antibody, human IgG1, kappa)
heavy 1: not shown
heavy 2: not shown
light: B1 light
notes: as for B1
B22: GpH7-A5/GpH7-B3 variant S298_08L/GpL16-k0 (antibody, human IgG1, kappa)
heavy 1: not shown
heavy 2: not shown
light: B1 light
notes: as for B1
B23: GpH7-A5/GpH7-B3 variant S239_03V/GpL16-k0 (antibody, human IgG1, kappa)
heavy 1: not shown
heavy 2: not shown
light: B1 light
notes: as for B1
B24: GpH7-A5/GpH7-B3 variant K326_20W/GpL16-k0 (antibody, human IgG1, kappa)
heavy 1: not shown
heavy 2: not shown
light: B1 light
notes: as for B1
B25: GpH7-A5/GpH7-B3 variant V266_06M/GpL16-k0 (antibody, human IgG1, kappa)
heavy 1: not shown
heavy 2: not shown
light: B1 light
notes: as for B1
B26: GpH7-A5/GpH7-B3 variant P238_19Q/GpL16-k0 (antibody, human IgG1, kappa)
heavy 1: not shown
heavy 2: not shown
light: B1 light
notes: as for B1
B27: GpH7-A5/GpH7-B3 variant P238_15Y/GpL16-k0 (antibody, human IgG1, kappa)
heavy 1: not shown
heavy 2: not shown
light: B1 light
notes: as for B1
B28: GpH7-A5/GpH7-B3 variant N325_01G/GpL16-k0 (antibody, human IgG1, kappa)
heavy 1: not shown
heavy 2: not shown
light: B1 light
notes: as for B1
B29: GpH7-A5/GpH7-B3 variant S267_01G/GpL16-k0 (antibody, human IgG1, kappa)
heavy 1: not shown
heavy 2: not shown
light: B1 light
notes: as for B1
B30: GpH7-A5/GpH7-B3 variant P238_03V/GpL16-k0 (antibody, human IgG1, kappa)
heavy 1: not shown
heavy 2: not shown
light: B1 light
notes: as for B1
B31: GpH7-A5/GpH7-B3 variant P271_08L/GpL16-k0 (antibody, human IgG1, kappa)
heavy 1: not shown
heavy 2: not shown
light: B1 light
notes: as for B1
B32: GpH7-A5/GpH7-B3 variant S239_07I/GpL16-k0 (antibody, human IgG1, kappa)
heavy 1: not shown
heavy 2: not shown
light: B1 light
notes: as for B1
B33: GpH7-A5/GpH7-B3 variant A327_01G/GpL16-k0 (antibody, human IgG1, kappa)
heavy 1: not shown
heavy 2: not shown
light: B1 light
notes: Heterodimerized anti-glypican-3 IgG1; alteration in the GpH7-B3 chain only; also called He Ab
B34: GpH7-A5/GpH7-B3 variant L234_20W/GpL16-k0 (antibody, human IgG1, kappa)
heavy 1: not shown
heavy 2: not shown
light: B1 light
notes: as for B33
B35: GpH7-A5/GpH7-B3 variant A327_18N/GpL16-k0 (antibody, human IgG1, kappa)
heavy 1: not shown
heavy 2: not shown
light: B1 light
notes: as for B33
B36: GpH7-A5/GpH7-B3 variant G236_10E/GpL16-k0 (antibody, human IgG1, kappa)
heavy 1: not shown
heavy 2: not shown
light: B1 light
notes: as for B33
B37: GpH7-A5/GpH7-B3 variant G237_13S/GpL16-k0 (antibody, human IgG1, kappa)
heavy 1: not shown
heavy 2: not shown
light: B1 light
notes: as for B33

What follows are binders tested against T1, FcγRIIb extracellular domain with … (assay: SPR (Biacore), relative to GpH7-A5/GpH7-B3/GpL16-k0 = 100).

Row | Binder | He/Con_2b
1 | B1 | 115 % (control = 100)
2 | B2 | 174 % (control = 100)
3 | B3 | 312 % (control = 100)
4 | B4 | 192 % (control = 100)
5 | B5 | 104 % (control = 100)
6 | B6 | 210 % (control = 100)
7 | B7 | 106 % (control = 100)
8 | B8 | 140 % (control = 100)
9 | B9 | 109 % (control = 100)
10 | B10 | 120 % (control = 100)
11 | B11 | 144 % (control = 100)
12 | B12 | 109 % (control = 100)
13 | B13 | 102 % (control = 100)
14 | B14 | 218 % (control = 100)
15 | B15 | 123 % (control = 100)
16 | B16 | 204 % (control = 100)

Row | Binder | He/Con_2b
17 | B17 | 108 % (control = 100)
18 | B18 | 101 % (control = 100)
19 | B19 | 379 % (control = 100)
20 | B20 | 192 % (control = 100)
21 | B21 | 102 % (control = 100)
22 | B22 | 108 % (control = 100)
23 | B23 | 108 % (control = 100)
24 | B24 | 148 % (control = 100)
25 | B25 | 251 % (control = 100)
26 | B26 | 110 % (control = 100)
27 | B27 | 218 % (control = 100)
28 | B28 | 101 % (control = 100)
29 | B29 | 105 % (control = 100)
30 | B30 | 120 % (control = 100)
31 | B31 | 103 % (control = 100)
32 | B32 | 107 % (control = 100)

These binders were tested against T3, FcγRIIIa extracellular domain with C-terminal His tag (human, UniProt P08637 17-208) in the same assay as above.
T3 construct: extracellular domain; also called 3a; FcgRIIIa; not shown: His tag at the C terminus
T3 sequence (P08637 17-208): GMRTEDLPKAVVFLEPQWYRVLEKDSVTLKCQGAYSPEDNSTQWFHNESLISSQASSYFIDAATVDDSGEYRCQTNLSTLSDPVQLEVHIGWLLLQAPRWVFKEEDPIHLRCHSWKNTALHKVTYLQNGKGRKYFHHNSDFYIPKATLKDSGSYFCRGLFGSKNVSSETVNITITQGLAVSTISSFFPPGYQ

Row | Binder | He/Con_3a
33 | B1 | 30.7 % (control = 100)
34 | B2 | 30.5 % (control = 100)
35 | B3 | 46.7 % (control = 100)
36 | B4 | 25.2 % (control = 100)
37 | B5 | 45.6 % (control = 100)
38 | B6 | 66 % (control = 100)
39 | B7 | 91.6 % (control = 100)
40 | B8 | 95.3 % (control = 100)
41 | B9 | 93.6 % (control = 100)
42 | B10 | 93.1 % (control = 100)
43 | B11 | 76.2 % (control = 100)
44 | B12 | 19.5 % (control = 100)
45 | B13 | 92.6 % (control = 100)
46 | B14 | 65 % (control = 100)
47 | B15 | 49.7 % (control = 100)
48 | B16 | 75.5 % (control = 100)

Row | Binder | He/Con_3a
49 | B17 | 96.3 % (control = 100)
50 | B18 | 78.2 % (control = 100)
51 | B19 | 91.9 % (control = 100)
52 | B20 | 30.8 % (control = 100)
53 | B21 | 14.9 % (control = 100)
54 | B22 | 73.5 % (control = 100)
55 | B23 | 76.6 % (control = 100)
56 | B24 | 84.8 % (control = 100)
57 | B25 | 85.8 % (control = 100)
58 | B26 | 55.8 % (control = 100)
59 | B27 | 64.5 % (control = 100)
60 | B28 | 28 % (control = 100)
61 | B29 | 53.8 % (control = 100)
62 | B30 | 43.8 % (control = 100)
63 | B31 | 71 % (control = 100)
64 | B32 | 79.3 % (control = 100)

The binders below were run against T4, FcγRIa (human, UniProt P12314 16-292) (assay: SPR (Biacore), antibody captured, FcγR as analyte; relative to GpH7-A5/GpH7-B3/GpL16-k0 = 100).
T4 construct: extracellular domain; Soluble extracellular domain with C-terminal His tag, used as analyte in Biacore; also called FcgRI; 1a; not shown: His tag attached to the C terminus
Description: (§1) The heterodimerized antibodies He Abs in which one of the H chains was introduced with an alteration were assayed for their binding activities to each activating FcγR and inhibitory FcγR according to the method described in Example 4. […] The activating FcγRs in FIGS. 26, 27, 28, and 29 are FcγRIa, FcγRIIa (R), FcγRIIa (H), and FcγRIIIa, respectively.
(§2) Analysis of interaction between objective antibody and the FcγR was carried out using Biacore T100 (GE Healthcare). HBS-EP+ (GE Healthcare) was used as the running buffer, and the measurement temperature was set to 25° C. Chips produced by immobilizing the antigen peptide by the amine coupling method to a Series S Sencor Chip CM5 (GE Healthcare), or alternatively, chips produced by allowing preliminarily biotinylated antigen peptides to interact with and immobilize onto a Series S Sensor Chip SA (certified) (GE Healthcare) were used. Antibodies of interest were captured onto an antigen peptide-immobilized chip, and allowed to interact to each FcγR diluted with running buffer. To regenerate and repeatedly use the chip, the antibodies captured on the chip were washed off by reacting 10 mM glycine-HCl, pH 1.5.

T4 sequence (P12314 16-292): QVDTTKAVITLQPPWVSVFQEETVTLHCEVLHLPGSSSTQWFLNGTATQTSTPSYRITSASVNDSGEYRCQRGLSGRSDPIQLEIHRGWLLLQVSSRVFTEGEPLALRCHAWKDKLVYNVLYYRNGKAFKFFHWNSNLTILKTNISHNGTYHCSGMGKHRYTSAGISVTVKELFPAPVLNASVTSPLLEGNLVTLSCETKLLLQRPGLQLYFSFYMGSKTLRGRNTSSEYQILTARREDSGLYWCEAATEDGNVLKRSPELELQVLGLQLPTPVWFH

Row | Binder | He/Con_1a
65 | B33 | 99 % of control (=100)
66 | B34 | 98.6 % of control (=100)
67 | B35 | 97.7 % of control (=100)
68 | B36 | 93.7 % of control (=100)
69 | B37 | 92.2 % of control (=100)

Each binder was assayed against T2, FcγRIIb in the same assay as above.
Description: as §1, §2

Row | Binder | He/Con_2b
70 | B33 | 116 % of control (=100)
71 | B34 | 114 % of control (=100)
72 | B35 | 113 % of control (=100)
73 | B36 | 110 % of control (=100)
74 | B37 | 111 % of control (=100)
